US7067474B1, “Agents for treating human illnesses based on β-catenin, and the production and use thereof” (Max-Delbruck-Centrum fur Molekulare Medizin, priority 1998, dated 2006)

What was measured:
Assay in all cases: yeast 2-hybrid; - means 60-100% of the wild type interaction
[1] = target: T1, human β-catenin (Leu218-Leu781) mutant Arg 342 to alanine, Gal-4 activation domain fusion (human, UniProt P35222 218-781)
T1 sequence: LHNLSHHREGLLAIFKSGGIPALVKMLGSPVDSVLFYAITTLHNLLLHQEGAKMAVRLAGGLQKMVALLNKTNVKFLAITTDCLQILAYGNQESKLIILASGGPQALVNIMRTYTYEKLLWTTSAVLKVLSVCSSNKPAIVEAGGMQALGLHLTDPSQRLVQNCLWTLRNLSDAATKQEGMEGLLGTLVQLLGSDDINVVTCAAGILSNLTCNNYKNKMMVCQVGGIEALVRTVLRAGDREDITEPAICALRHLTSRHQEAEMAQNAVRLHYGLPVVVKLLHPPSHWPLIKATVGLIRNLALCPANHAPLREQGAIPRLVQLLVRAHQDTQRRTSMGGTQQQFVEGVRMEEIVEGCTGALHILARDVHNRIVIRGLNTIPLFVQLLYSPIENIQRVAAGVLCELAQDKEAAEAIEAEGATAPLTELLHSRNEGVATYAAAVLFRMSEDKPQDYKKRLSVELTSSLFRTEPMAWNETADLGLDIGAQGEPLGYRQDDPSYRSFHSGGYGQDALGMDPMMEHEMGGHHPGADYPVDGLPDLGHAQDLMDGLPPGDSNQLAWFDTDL
Method: (§1) 4. Preparation and testing of mutants of β-catenin modulating the interaction with LEF-1, APC, conductin or E-cadherin The mutagenesis of β-catenin in the armadillo repeats 3–8 was carried out by means of the "mutagenesis kit" of the company Clontech according to the producer's record and the mutants were checked by sequencing (FIG. 5). In all mutants the original amino acid was substituted by alanine. For analyzing the interactions the cDNA of human β-catenin (armadillo repeat 3 up to the C-terminal end of the protein) coding for the amino acids Leu218–Leu7 µl or its mutants was cloned into the fusion vector for the activation domain of Gal-4 (pGAD424, Clontech). The cDNA for the binding domains of the interaction partners was cloned into the Lex-A fusion vector BTM 116. To this end, the cDNA of LEF-1 for the amino acids 1–99, conductin for the amino acids Ala342–ARG465; of human APC for the amino acids His1012–Glu1215 (APC 15 amino acid repeats) and for the amino acids Ser1259Asp 1400 (APC 20 amino acid repeats) and E-cadherin for the amino acids Gin773–Asp884 (cytoplasmatic domain) were amplified with the respective primers PCR. The interaction of the Lex-A hybrids with β-catenin and its mutants was quantified by means of the β-galactosidase reporter activity in the yeast 2-hybrid system (report: "Matchmaker". Clontech) (Tab. 2 and FIG. 6).

[2] = target: T2, human β-catenin (Leu218-Leu781) mutant Phe 253 to alanine, Gal-4 activation domain fusion (human, UniProt P35222 218-781)
T2 sequence: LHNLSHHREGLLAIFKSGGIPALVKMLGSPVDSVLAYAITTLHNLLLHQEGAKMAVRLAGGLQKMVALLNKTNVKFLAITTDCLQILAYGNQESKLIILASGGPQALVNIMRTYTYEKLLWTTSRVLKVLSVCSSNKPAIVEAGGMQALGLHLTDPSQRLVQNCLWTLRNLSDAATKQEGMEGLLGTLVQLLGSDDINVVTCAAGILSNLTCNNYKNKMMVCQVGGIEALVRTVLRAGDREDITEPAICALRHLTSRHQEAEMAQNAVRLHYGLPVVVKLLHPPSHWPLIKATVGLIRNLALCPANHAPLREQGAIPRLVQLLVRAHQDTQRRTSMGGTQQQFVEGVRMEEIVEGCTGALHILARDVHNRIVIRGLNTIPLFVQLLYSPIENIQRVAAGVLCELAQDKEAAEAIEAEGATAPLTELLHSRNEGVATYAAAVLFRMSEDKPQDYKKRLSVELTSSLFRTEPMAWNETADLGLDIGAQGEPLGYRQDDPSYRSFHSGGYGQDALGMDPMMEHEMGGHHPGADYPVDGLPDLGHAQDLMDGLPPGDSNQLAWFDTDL
Method: as §1

[3] = target: T3, human β-catenin (Leu218-Leu781) mutant Arg 274 to alanine, Gal-4 activation domain fusion (human, UniProt P35222 218-781)
T3 sequence: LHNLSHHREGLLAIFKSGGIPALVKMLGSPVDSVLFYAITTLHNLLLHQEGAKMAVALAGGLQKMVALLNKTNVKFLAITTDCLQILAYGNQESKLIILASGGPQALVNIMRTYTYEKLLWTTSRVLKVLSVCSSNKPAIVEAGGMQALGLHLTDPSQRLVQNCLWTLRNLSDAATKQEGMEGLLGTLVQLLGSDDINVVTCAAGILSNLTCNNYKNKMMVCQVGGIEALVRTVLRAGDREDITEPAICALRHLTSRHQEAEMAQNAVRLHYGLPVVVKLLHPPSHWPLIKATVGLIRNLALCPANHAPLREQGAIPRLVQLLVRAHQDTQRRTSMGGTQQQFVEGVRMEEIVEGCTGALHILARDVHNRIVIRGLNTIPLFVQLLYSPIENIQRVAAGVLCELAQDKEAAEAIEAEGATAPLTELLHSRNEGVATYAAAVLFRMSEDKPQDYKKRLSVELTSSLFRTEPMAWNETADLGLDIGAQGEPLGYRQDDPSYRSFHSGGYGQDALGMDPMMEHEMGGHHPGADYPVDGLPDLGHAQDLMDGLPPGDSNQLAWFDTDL
Method: as §1

Measured: binding result

B1: LEF-1 amino acids 1-99 fused to Lex-A (vector BTM 116) (other, UniProt P0A7C2 1-202, looked up)
chain: MKALTARQQEVFDLIRDHISQTGMPPTRAEIAQRLGFRSPNAAEEHLKALARKGVIEIVSGASRGIRLLQEEEEGLPLVGRVAAGEPLLAQQHIEGHYQVDPSLFKPNADFLLRVSGMSMKDIGIMDGDLLAVHKTQDVRNGQVVVARIDDEVTVKRLKKQGNKVELLPENSEFKPIVVDLRQQSFTIEGLAVGVIRNGDWLMPQLSGGGGGGDPELCATDEMIPFKDEGDPQKEKIFAEISHPEEEGDLADIKSSLVNESEIIPASNGHEVVRQAPSSQEPYHDKAREHPDEGKHPDGGL
notes: Order of the fusion follows the vector; also called LEF-1/TCF-4
binds: [1] | [2] | [3]
